The record followed here is paper PMC4785402, “Structure of ThiM from Vitamin B1 biosynthetic pathway of Staphylococcus aureus – Insights into a novel pro-drug approach addressing MRSA infections” (Scientific Reports, 2016).

Series [1] addresses T1, SaThiM (Staphylococcus aureus, UniProt Q6GEY3).
T1 construct: gene thiM; homotrimer, active sites between two monomers
T1 sequence (Q6GEY3 1-263): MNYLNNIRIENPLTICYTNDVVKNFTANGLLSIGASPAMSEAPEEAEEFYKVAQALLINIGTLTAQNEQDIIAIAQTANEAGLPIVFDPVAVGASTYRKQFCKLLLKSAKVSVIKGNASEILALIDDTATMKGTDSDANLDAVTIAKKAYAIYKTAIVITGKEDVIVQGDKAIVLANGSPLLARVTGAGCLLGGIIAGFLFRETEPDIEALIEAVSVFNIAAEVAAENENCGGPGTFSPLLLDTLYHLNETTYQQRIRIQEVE
The series is described as follows: X-ray crystal structure of soaked complex, […] Å. It counts as binding. The following applies: Mg2+ in four of the six active sites; active site at monomer interface.

Series [2] concerns Cc1nccn1CCO. The series is described as follows: purified protein. To be noted: 4 mM ATP, 10 mM MgCl2, 50 mM potassium phosphate pH 7.5, 37 °C.
Substrate in series [3]: Cc1nn(C)c(C)c1CCO
Put plainly: purified protein. To be noted: 4 mM ATP, 10 mM MgCl2, 50 mM potassium phosphate pH 7.5, 37 °C.

Turning to `Cc1ncsc1CCO` [THZ, 5-(hydroxyethyl)-4-methylthiazole], the “X-ray crystal structure of soaked complex, 1.90 Å” value in series [1] is recorded as “THZ identically occupies all six active sites of the two trimers in the asymmetric unit”.

“SaThiM (Staphylococcus aureus subsp. aureus MRSA252)”: in series [2], the Km turned out to be 831 ± 169 µM and the kcat came out at 3.63 ± 0.05 s⁻¹.

B1: SaThiM (Staphylococcus aureus subsp. aureus MRSA252) (protein)
chain: MNYLNNIRIENPLTICYTNDVVKNFTANGLLSIGASPAMSEAPEEAEEFYKVAQALLINIGTLTAQNEQDIIAIAQTANEAGLPIVFDPVAVGASTYRKQFCKLLLKSAKVSVIKGNASEILALIDDTATMKGTDSDANLDAVTIAKKAYAIYKTAIVITGKEDVIVQGDKAIVLANGSPLLARVTGAGCLLGGIIAGFLFRETEPDIEALIEAVSVFNIAAEVAAENENCGGPGTFSPLLLDTLYHLNETTYQQRIRIQEVE
B1: in series [3], the Km is 834 ± 147 µM and the kcat came out at 3.58 ± 0.133 s⁻¹.

What is called Km is the substrate concentration at which the rate is half of its maximum. A word on the kcat: it is the maximal rate divided by the concentration of active sites.
